Results from PMC3873911 (PLoS ONE, 2013).
Residues, ends and D or L forms follow the SMILES beside them.

How the values were obtained:
Type in all cases: cell-based
LGR7 = biological target: T1, LGR7 (Homo sapiens, UniProt Q9HBX9); assay: CRE-luciferase assay, relaxin-LGR7 ligand-receptor pair (positive control); details: Fig. S4
T1 construct: expressed in transfected cells; host or cells: HEK293T (inferred from the general luciferase protocol)
T1 sequence (Q9HBX9 1-757): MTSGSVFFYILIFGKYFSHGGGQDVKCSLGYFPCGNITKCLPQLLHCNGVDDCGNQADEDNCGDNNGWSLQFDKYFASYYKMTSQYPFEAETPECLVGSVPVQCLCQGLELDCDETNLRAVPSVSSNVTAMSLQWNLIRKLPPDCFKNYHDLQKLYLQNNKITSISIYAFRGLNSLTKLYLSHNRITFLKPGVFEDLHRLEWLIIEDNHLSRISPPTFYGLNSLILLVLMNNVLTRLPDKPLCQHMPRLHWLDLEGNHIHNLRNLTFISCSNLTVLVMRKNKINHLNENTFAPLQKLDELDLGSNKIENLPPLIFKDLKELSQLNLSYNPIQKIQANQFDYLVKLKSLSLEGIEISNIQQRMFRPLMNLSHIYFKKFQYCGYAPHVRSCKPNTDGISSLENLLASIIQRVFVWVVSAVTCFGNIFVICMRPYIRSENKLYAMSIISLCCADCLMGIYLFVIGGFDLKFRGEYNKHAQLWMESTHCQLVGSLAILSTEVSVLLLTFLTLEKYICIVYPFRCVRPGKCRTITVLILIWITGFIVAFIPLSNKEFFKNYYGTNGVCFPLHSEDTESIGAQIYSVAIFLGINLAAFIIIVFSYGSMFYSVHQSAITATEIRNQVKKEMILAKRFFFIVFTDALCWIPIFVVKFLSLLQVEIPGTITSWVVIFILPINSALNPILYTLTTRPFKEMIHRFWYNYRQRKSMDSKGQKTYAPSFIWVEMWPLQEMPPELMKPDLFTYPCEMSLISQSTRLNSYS
From the text: (§1) To compare the bioactivity of wide type NPS (NPS) and the SNP variant (L^6-NPS), we monitored their receptor-activation activities in vitro using HEK293T cells over-expressing NPSR. Because NPS activates NPSR by increasing cAMP production and intracellular Ca^2+ signaling, [10], we used CRE- and NFAT- response elements to measure cAMP and intracellular Ca2+ signaling respectively, [36]. As expected, treatment with wide-type NPS led to dose-dependent stimulation of both CRE- and NFAT- luciferase activities (Fig. 2B and C). We also performed the relaxin-LGR7 ligand-receptor pair as a positive control for the CRE-luciferase assay. Also, gastrin-CCKB ligand-receptor pair was used as a positive control for the SRE-luciferase assay. Cells transfected with the empty vector were also treated with NPS to serve as a negative control (Fig. S4).
Supplementary file pone.0083009.s004.pdf: Figure S4 Positive control and negative control for the CRE- and SRE- luciferase assay. […] (PDF) Click here for additional data file.

NPSR receptor [1] = biological target: T2, NPSR receptor (Homo sapiens, UniProt Q6W5P4); assay: CRE-luciferase reporter assay in HEK293T cells over-expressing NPSR (cAMP signaling); details: for bioactivity in the CRE-luciferase assay (in words): 6th position substitution mutants, HEK293T with NPSR, Fig. 3A; for Agonist effect (CRE) EC50 / EC50: HEK293T co-transfected with CRE-luciferase reporter (50 ng), pSV-β-Gal (5 ng), NPSR plasmid (50 ng), after 36 h, 18 h with peptide in serum-free media, normalized to β-galactosidase, at least three experiments in triplicates, apparent EC50, Graphpad Prism 5.0; for EC50: read-out: Agonist effect (CRE) EC50
T2 construct: Full length cDNA for the NPSR receptor was purchased from OriGene Technologies; host or cells: HEK293T
T2 sequence (Q6W5P4 1-371): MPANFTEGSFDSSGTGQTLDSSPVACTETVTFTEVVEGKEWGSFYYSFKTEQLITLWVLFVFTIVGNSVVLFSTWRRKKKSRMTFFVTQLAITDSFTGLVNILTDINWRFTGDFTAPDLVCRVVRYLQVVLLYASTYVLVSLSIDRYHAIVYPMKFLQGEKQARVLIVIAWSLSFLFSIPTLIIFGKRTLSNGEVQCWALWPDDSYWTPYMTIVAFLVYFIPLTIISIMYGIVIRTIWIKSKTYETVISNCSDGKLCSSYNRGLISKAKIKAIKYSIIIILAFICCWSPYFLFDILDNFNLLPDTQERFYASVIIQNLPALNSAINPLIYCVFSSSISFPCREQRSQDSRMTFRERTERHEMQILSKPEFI
Method: (§2) HEK293T cells seeded in 24-well plates were co-transfected with different luciferase reporters (50 ng), the pSV-β-Gal plasmid (5 ng), and the NPSR receptor plasmid (50 ng). After 36 h, cells were cultured in serum-free media for another 18 h with increasing doses of the various NPS peptides. Luciferase activities were determined using the luciferase assay kit (Promega) and normalized using β-galactosidase activities. All experiments were performed at least three times in triplicates. Data (EC50) were analyzed using Graphpad Prism 5.0.
(§3) Figure 2 Sequence comparison and lower NPSR receptor signaling ability of the L^6-NPS variant. (A) Alignment of NPS among diverse vertebrate species. Sequences were aligned by the ClustalW program. Stars indicate identical amino acids and double dots (:) indicate conserved amino acids. The predicted convertase cleavage sites (KR) were underlined and the 6th amino acid “V” or “L” in the mature peptide region are shown in bold. (B) Comparison of NPS and L^6-NPS signaling based on the CRE-luciferase assay. (C) Comparison of NPS and L^6-NPS signaling based on the NFAT luciferase assay. HEK293T cells seeded in 24-well plates were co-transfected with different luciferase reporters (50 ng), the pSV-β-Gal plasmid (5 ng), and the NPSR receptor plasmid (50 ng). After 36 h, cells were cultured in serum-free media for another 18 h with increasing doses of the various NPS peptides. EC50 values were analyzed using Graphpad Prism 5.0.
as §1

NPSR receptor [2] = biological target: T2, NPSR receptor; assay: NFAT-luciferase reporter assay in HEK293T cells over-expressing NPSR (intracellular Ca2+ signaling); details: HEK293T co-transfected with NFAT-luciferase reporter (50 ng), pSV-β-Gal (5 ng), NPSR plasmid (50 ng), after 36 h, 18 h with peptide in serum-free media, normalized to β-galactosidase, at least three experiments in triplicates, Graphpad Prism 5.0; for EC50: read-out: Agonist effect (NFAT) EC50
Method: as §2, §3, §1

Compound | stimulation of CRE-luciferase via LGR7 (LGR7) | bioactivity in the CRE-luciferase assay (in words) (NPSR receptor [1]) | Agonist effect (CRE) EC50 (NPSR receptor [1]) | Agonist effect (NFAT) EC50 (NPSR receptor [2]) | EC50 (NPSR receptor [1]) [nM] | EC50 (NPSR receptor [2]) [nM]
relaxin | normal stimulation | – | – | – | – | –
N^6-NPS: NPS mutant with asparagine at the 6th position (SFRNGNGTGMKKTSFQRAKS; Neuropeptide S; UniProt P0C0P6 70-89, looked up, variant V6N) | – | complete loss of bioactivity | inactive | inactive | – | –
CSCC[C@H](NC(=O)CNC(=O)[C@@H](NC(=O)CNC(=O)[C@@H](NC(=O)CNC(=O)[C@H](CC(N)=O)NC(=O)[C@H](CCCNC(=N)N)NC(=O)[C@H](Cc1ccccc1)NC(=O)[C@@H](N)CO)C(C)C)[C@@H](C)O)C(=O)N[C@@H](CCCCN)C(=O)N[C@@H](CCCCN)C(=O)N[C@H](C(=O)N[C@@H](CO)C(=O)N[C@@H](Cc1ccccc1)C(=O)N[C@@H](CCC(N)=O)C(=O)N[C@@H](CCCNC(=N)N)C(=O)N[C@@H](C)C(=O)N[C@@H](CCCCN)C(=O)N[C@@H](CO)C(=O)O)[C@@H](C)O [NPS, Neuropeptide S, reference compound] (H-SFRNGVGTGMKKTSFQRAKS-OH) | – | – | – | – | 36.9 | 44.6
F^6-NPS: NPS mutant with phenylalanine at the 6th position (SFRNGFGTGMKKTSFQRAKS; Neuropeptide S; UniProt P0C0P6 70-89, looked up, variant V6F) | – | complete loss of bioactivity | inactive | inactive | – | –

Results, then the compound that gave them:

stimulation of CRE-luciferase via LGR7 (LGR7) | bioactivity in the CRE-luciferase assay (in words) (NPSR receptor [1]) | Agonist effect (CRE) EC50 (NPSR receptor [1]) | Agonist effect (NFAT) EC50 (NPSR receptor [2]) | EC50 (NPSR receptor [1]) [nM] | EC50 (NPSR receptor [2]) [nM] | Compound
– | complete loss of bioactivity | inactive | inactive | – | – | K^6-NPS: NPS mutant with lysine at the 6th position (SFRNGKGTGMKKTSFQRAKS; Neuropeptide S; UniProt P0C0P6 70-89, looked up, variant V6K)
– | – | – | – | 174 | 280 | CC[C@H](C)[C@H](NC(=O)CNC(=O)[C@H](CC(N)=O)NC(=O)[C@H](CCCNC(=N)N)NC(=O)[C@H](Cc1ccccc1)NC(=O)[C@@H](N)CO)C(=O)NCC(=O)N[C@H](C(=O)NCC(=O)N[C@@H](CCSC)C(=O)N[C@@H](CCCCN)C(=O)N[C@@H](CCCCN)C(=O)N[C@H](C(=O)N[C@@H](CO)C(=O)N[C@@H](Cc1ccccc1)C(=O)N[C@@H](CCC(N)=O)C(=O)N[C@@H](CCCNC(=N)N)C(=O)N[C@@H](C)C(=O)N[C@@H](CCCCN)C(=O)N[C@@H](CO)C(=O)O)[C@@H](C)O)[C@@H](C)O [I^6-NPS] (H-SFRNGIGTGMKKTSFQRAKS-OH)
– | complete loss of bioactivity | inactive | inactive | – | – | D^6-NPS: NPS mutant with aspartic acid at the 6th position (SFRNGDGTGMKKTSFQRAKS; Neuropeptide S; UniProt P0C0P6 70-89, looked up, variant V6D)
– | – | – | – | 586 | 975 | CSCC[C@H](NC(=O)CNC(=O)[C@@H](NC(=O)CNC(=O)[C@H](CC(C)C)NC(=O)CNC(=O)[C@H](CC(N)=O)NC(=O)[C@H](CCCNC(=N)N)NC(=O)[C@H](Cc1ccccc1)NC(=O)[C@@H](N)CO)[C@@H](C)O)C(=O)N[C@@H](CCCCN)C(=O)N[C@@H](CCCCN)C(=O)N[C@H](C(=O)N[C@@H](CO)C(=O)N[C@@H](Cc1ccccc1)C(=O)N[C@@H](CCC(N)=O)C(=O)N[C@@H](CCCNC(=N)N)C(=O)N[C@@H](C)C(=O)N[C@@H](CCCCN)C(=O)N[C@@H](CO)C(=O)O)[C@@H](C)O [L^6-NPS] (H-SFRNGLGTGMKKTSFQRAKS-OH)
– | – | – | – | 534 | 958 | CSCC[C@H](NC(=O)CNC(=O)[C@@H](NC(=O)CNC(=O)[C@H](C)NC(=O)CNC(=O)[C@H](CC(N)=O)NC(=O)[C@H](CCCNC(=N)N)NC(=O)[C@H](Cc1ccccc1)NC(=O)[C@@H](N)CO)[C@@H](C)O)C(=O)N[C@@H](CCCCN)C(=O)N[C@@H](CCCCN)C(=O)N[C@H](C(=O)N[C@@H](CO)C(=O)N[C@@H](Cc1ccccc1)C(=O)N[C@@H](CCC(N)=O)C(=O)N[C@@H](CCCNC(=N)N)C(=O)N[C@@H](C)C(=O)N[C@@H](CCCCN)C(=O)N[C@@H](CO)C(=O)O)[C@@H](C)O [A^6-NPS] (H-SFRNGAGTGMKKTSFQRAKS-OH)
